Values quoted from earlier work as cited in article PMC8262464.

Target: TLR2 (Homo sapiens) (UniProt O60603)
Test: SPR

Sequence of UniProt O60603 (O60603 21-588): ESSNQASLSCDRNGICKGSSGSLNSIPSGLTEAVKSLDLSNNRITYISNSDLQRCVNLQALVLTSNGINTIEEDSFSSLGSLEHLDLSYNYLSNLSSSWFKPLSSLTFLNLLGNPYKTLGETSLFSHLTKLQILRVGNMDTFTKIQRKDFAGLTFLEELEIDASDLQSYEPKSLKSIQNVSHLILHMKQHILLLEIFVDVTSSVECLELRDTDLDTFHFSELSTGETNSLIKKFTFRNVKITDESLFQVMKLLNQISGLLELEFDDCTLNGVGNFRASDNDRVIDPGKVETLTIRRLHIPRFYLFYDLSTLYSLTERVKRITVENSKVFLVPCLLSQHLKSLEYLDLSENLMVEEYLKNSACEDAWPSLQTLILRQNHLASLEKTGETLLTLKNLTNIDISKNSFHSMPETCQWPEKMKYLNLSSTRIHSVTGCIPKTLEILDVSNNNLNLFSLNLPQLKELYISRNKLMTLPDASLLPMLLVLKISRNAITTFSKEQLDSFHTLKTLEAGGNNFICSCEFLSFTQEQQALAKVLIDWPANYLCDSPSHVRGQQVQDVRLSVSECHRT

## MMP2 (from UniProt P08253)
  Kd: 32.2 nM
